Drawing on patent US20160319361, “OLIGONUCLEOTIDE PROBES AND USES THEREOF” (CARIS LIFE SCIENCES SWITZERLAND HOLDINGS GMBH, published 2016), this text covers Kd for 1 molecule.

The target in the series is T1, EpCAM (UniProt P16422 P16422:24-265).
T1 sequence: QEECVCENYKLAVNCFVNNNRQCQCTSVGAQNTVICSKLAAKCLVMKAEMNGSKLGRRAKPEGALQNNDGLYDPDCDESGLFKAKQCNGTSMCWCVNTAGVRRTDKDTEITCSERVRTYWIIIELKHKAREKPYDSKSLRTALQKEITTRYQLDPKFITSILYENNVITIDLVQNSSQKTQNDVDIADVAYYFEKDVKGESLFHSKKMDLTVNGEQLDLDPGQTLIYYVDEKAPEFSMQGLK
Description: SPR; immobilized biotinylated aptamer, EpCAM analyte; HBS-EP+ buffer. The following applies: label: biotin via tail. The protocol:
FIG. 5 illustrates results from a binding assay showing the binding affinity of an exemplary aptamer (Aptamer ID BTX176881 (SEQ ID NO: 3)) to the target EpCAM protein at various target concentrations. The aptamer to be tested is fixed to a substrate using a biotin tail and is incubated with various concentrations of target (125, 250 and 500 nM). The test is performed on a surface plasmon resonance machine (SPR). The SPR machine detects association and disassociation of the aptamer and the target. Target is applied until the association and disassociation events are equal, resulting in a plateau of the curve. The equations describing the curve at each concentration can then be used to calculate the KD of the aptamer (see Table 5).
The Biacore 200 control software is programmed with the following conditions: Solution: HBS-EP+ Buffer; Number of cycles: 3; Contact time: 120s; Flow rate: 30 μl/min; Dissociation time: 300s; Solution: Glycine-HCl pH 2.5; Contact time: 120s; Flow rate: 20 μl/min; Stabilization period: 0s. The binding affinities of these aptamers are then measured using the SPR assay above, or an alternate in vitro assay assessing the aptamer for a desired function.

Regarding CCCGATTTTGGTACCGCGGGGATCCGCGTCTG (ssDNA) [BTX176881], the Kd turned out to be 8.4 nM.
